B1: Serine/threonine-protein kinase SRK2E (Arabidopsis thaliana (Mouse-ear cress)), Q940H6 (parent)
chain: MDRPAVSGPMDLPIMHDSDRYELVKDIGSGNFGVARLMRDKQSNELVAVKYIERGEKIDENVKREIINHRSLRHPNIVRFKEVILTPTHLAIVMEYASGGELFERICNAGRFSEDEARFFFQQLISGVSYCHAMQVCHRDLKLENTLLDGSPAPRLKICDFGYSKSSVLHSQPKSTVGTPAYIAPEVLLKKEYDGKVADVWSCGVTLYVMLVGAYPFEDPEEPKNFRKTIHRILNVQYAIPDYVHISPECRHLISRIFVADPAKRISIPEIRNHEWFLKNLPADLMNDNTMTTQFDESDQPGQSIEEIMQIIAEATVPPAGTQNLNHYLTGSLDIDDDMEEDLESDLDDLDIDSSGEIVYAM
partner: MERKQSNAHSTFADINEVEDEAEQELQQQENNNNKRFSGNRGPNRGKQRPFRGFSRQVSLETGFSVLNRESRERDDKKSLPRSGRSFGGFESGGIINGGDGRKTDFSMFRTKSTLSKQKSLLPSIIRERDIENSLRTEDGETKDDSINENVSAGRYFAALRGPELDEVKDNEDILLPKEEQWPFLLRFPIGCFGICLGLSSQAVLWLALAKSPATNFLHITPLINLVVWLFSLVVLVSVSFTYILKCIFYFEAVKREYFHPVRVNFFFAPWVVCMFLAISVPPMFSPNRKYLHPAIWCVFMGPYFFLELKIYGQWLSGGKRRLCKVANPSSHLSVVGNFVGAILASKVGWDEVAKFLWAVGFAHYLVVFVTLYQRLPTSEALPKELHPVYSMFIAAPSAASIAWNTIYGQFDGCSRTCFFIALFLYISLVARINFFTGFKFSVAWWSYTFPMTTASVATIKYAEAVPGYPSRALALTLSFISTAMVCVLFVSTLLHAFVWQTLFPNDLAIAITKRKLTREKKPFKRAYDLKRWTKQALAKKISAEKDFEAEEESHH
B2: Protein phosphatase 2C 37 (Arabidopsis thaliana (Mouse-ear cress)), P49598 (parent)
chain: MAGICCGVVGETEPAAPVDSTSRASLRRRLDLLPSIKIVADSAVAPPLENCRKRQKRETVVLSTLPGNLDLDSNVRSENKKARSAVTNSNSVTEAESFFSDVPKIGTTSVCGRRRDMEDAVSIHPSFLQRNSENHHFYGVFDGHGCSHVAEKCRERLHDIVKKEVEVMASDEWTETMVKSFQKMDKEVSQRECNLVVNGATRSMKNSCRCELQSPQCDAVGSTAVVSVVTPEKIIVSNCGDSRAVLCRNGVAIPLSVDHKPDRPDELIRIQQAGGRVIYWDGARVLGVLAMSRAIGDNYLKPYVIPDPEVTVTDRTDEDECLILASDGLWDVVPNETACGVARMCLRGAGAGDDSDAAHNACSDAALLLTKLALARQSSDNVSVVVVDLRKRRNNQASS
partner: B1 chain

Variants of: B1
Conditions: with slac1_arath SLAC1, Q9LD83
For MDRPAVSGPMDLPIMHDSDRYELVKDIGSGNFGVARLMRDKQSNELVAVNYIERGEKIDENVKREIINHRSLRHPNIVRFKEVILTPTHLAIVMEYASGGELFERICNAGRFSEDEARFFFQQLISGVSYCHAMQVCHRDLKLENTLLDGSPAPRLKICDFGYSKSSVLHSQPKSTVGTPAYIAPEVLLKKEYDGKVADVWSCGVTLYVMLVGAYPFEDPEEPKNFRKTIHRILNVQYAIPDYVHISPECRHLISRIFVADPAKRISIPEIRNHEWFLKNLPADLMNDNTMTTQFDESDQPGQSIEEIMQIIAEATVPPAGTQNLNHYLTGSLDIDDDMEEDLESDLDDLDIDSSGEIVYAM [K50N], the “effect of a mutation on the interaction” value was “disrupting interaction”.

Variants of: B2
Conditions: with srk2e_arath SRK2E
With MAGICCGVVGETEPAAPVDSTSRASLRRRLDLLPSIKIVADSAVAPPLENCRKRQKRETVVLSTLPGNLDLDSNVRSENKKARSAVTNSNSVTEAESFFSDVPKIGTTSVCGRRRDMEDAVSIHPSFLQRNSENHHFYDVFDGHDCSHVAEKCRERLHDIVKKEVEVMASDEWTETMVKSFQKMDKEVSQRECNLVVNGATRSMKNSCRCELQSPQCDAVGSTAVVSVVTPEKIIVSNCGDSRAVLCRNGVAIPLSVDHKPDRPDELIRIQQAGGRVIYWDGARVLGVLAMSRAIGDNYLKPYVIPDPEVTVTDRTDEDECLILASDGLWDVVPNETACGVARMCLRGAGAGDDSDAAHNACSDAALLLTKLALARQSSDNVSVVVVDLRKRRNNQASS [G139D;G145D] the “effect of a mutation on the interaction” value was “disrupting interaction”.

From IntAct's records for PubMed 19955427
